# Source: the DeepSol protein solubility set
# Experiment: soluble on expression in E. coli; label from the status in PepcDB or PDB records
row,Sequence,soluble on expression in E. coli
1,MSSGNRQAPMPPPKPRNLGRGQFYQQGGYLTPQDSDTDSGISADCDQGSPRAAAGFGGTGFNGTVNGQQVNSQRRIPDLPPGAYQNYRSHSSADYLTPNSARKIASYSTTPRRLPLQPQQQAPATATKAKYRVRFADEVDSGASTSSGTSSTHISPRNDPQEMLMNSAVGAPQITSTFQQPASYMQNSSDAQYKMNKIEYPPVSRTPPVACSSRTGTLQRTPNRRLPISSTPQPQPTYADQMQSLPEPPPYTIAMQRLRSVEQQPQESFRDAFIRKSVNDTLQRRYRQRSSSLPRGNKSYYEGIDIYDAQPPIRPLPQQQTSLMTVANQLPGSLDNLHINNLNMRRRKLPTAPLMGSSCQLHLDNSDELTAYRALQFQMMQDELQRQQPPPQSFERPTLLRRTNMPQQQSFNIPHITTTGPPPPAMGLSVPVQYDQGEYGTQSVRAQLVALDQRGFRRVLVEKMMPGPFGFYIATGVVAGQRAGIFISRVSLPSLSPMLTVGDEIIYVDEEYVKGRSLEYVQSLRIFEFQTELITEEPPHKQVIFM,not soluble
2,MSSIASNTFTKTVESVPVDIKYDSDKYFISGYSYDAEVYLTATTQLALTTETTSDTRHFKLVADLSNFGPGTSHVPIQVKNLPDGMSAQVSPSTLTATIGKKASKTFDVVANITPDKLANGYEVKKVSLDETKVEVTSSEDIINQIDHVQAVLEGDDNLSDDYDGNLVLQAVSSNGTILASSISPAKVHAKISLRKLSKSVPVKLELTGDKASNVSSISYSFDRGHVTIVGSQEAMDKIDSITVPVDISQVTEDTSKTLELKAEGVTVQPSTVKVNLKVTQKLEHHHHHH,soluble
3,MSSINITNVTVLDNPAPFVNPFQFEISYECLTSLKDDLEWKLIYVGSAEDETYDQVLESVLVGPVNVGNYRFVLQADSPDPLKIREEDIIGVTVLLLTCSYMDQEFIRVGYYVNNDYDDEQLREEPPTKVLIDKVQRNILTDKPRVTKFPINFHPENEQTLGDGPAPTEPFADSVVNGEAPVFLEQPQKLQEIEQFDDSDVNGEAIALLDQPQNLQET,soluble
4,MSSIVEHVVLFKLNDDDVDSGKINSMVNGINELVNLDQVLHLYCGSIHRLITTTASDFTHVLHSRYRSKEDLNAYAIHPDHVRVVKESESIREDIMAVDWIAEQAPE,not soluble
5,MSSLNKLAIDQLNLAGKRVLIRVDFNVPLKDGKITNNQRIAAAVPTIQHALSNGAKSVVLMSHLGRPDGRRQDKYTLKPVAEELKALLKKDVLFLDDCVGSEVEAACADPAPGSVILLENLRYHLEEEGKGVDASGAKVKADSAAVKKFRESLTKLGDIYVNDAFGTAHRAHSSMVGVEHSQRASGFLLKNELSYFSKALDNPARPFLAILGGAKVADKIQLIKNLLDKVNEMIIGGGMAYTFLKVAQGVKIGNSLYDEEGAKIVNELLEAAKAKGVQIHLPVDFVIADKFAEDATSKTVTAEEGVPDGHMGLDVGPESSKIFAAAIQRAKTIVWNGPAGVFEFDKFATGTKSLMDEVVKATAAGAITIIGGGDTATAAKKYNTEDKVSHVSTGGGASLELLEGKVLPGVDALSPAQ,soluble
6,MSSNDVLAQIAGLAKAAAELENDFSTDSEMQQDSEICDEVDAELFDDFETKPSSRKESSGTSRRTRMAHRELQGLQFANPGDEMSRFLPDSVDIISTNRSKRVAAEKQADLRDEPLHHDKTGKLSVTAKGQTLFFDLCDCLVVECDGCHWPCKQCKSRKCLIGCRQNRKEMVIRVEEMYTVTEAPGPVVNINPYFPGQIKD,not soluble
7,MSSPKVGFVSLGRPKALVDSERILTQLRTEGYEVTPEYNDADVVVVNTCGFIDSAKAESLEAIGEAIAENGKVIVTGCMGVEESVIRQVHPSVLAVTGPQQYEEVVRAVHGVAPPRQDHNPYLDLVPPQGVKLTPRHYAYLKISEGCNHRCSFCIIPSMRGDLVSRPVGDVLSEAERLVRAGVKELLVISQDTSAYGVDIKYRSGFWNGRPVKTRMTELCAALSELGVWTRLHYVYPYPHVDEVIGLMADGKVLPYLDIPFQHASPRILRAMKRPAFEDKTLARIKRWREECPDLTLRSTFIVGFPGETEEDFQYLLDWMSEAQLDRVGCFQYSPVEGAPANTLDNPVPDEVKQERWERFMEHQQAISTARLSTRVGREIDVLIDSVDEEGAVGRSSADAPEIDGCVYVDSEQPLKAGDMVRVRVTDSDEYDLWGERIALEHHHHHH,soluble
8,MSSQKSSHHKADSKMEQDNNRKAWISQPSGLNFVWGGDSRYWVIPKEPRMPAELKMVSWLEVTGSFDKIEPGKTYRIGFKISFKPDATGWDKAPVFMSAKIGKKGKTVWKRIKSVSQNFGILKGGSEPVNIPDESDGLFEILVSPTALNQDTKLQFGLYEVWTGRWKTGLLIHEAFVQEV,soluble
